Experimental data published in patent US20210403582A1 (JACOBIO PHARMACEUTICALS, published 2021).

Key:
human LIF protein [1] = molecular target: T1, human LIF protein (human, UniProt P15018 23-202); assay: KinExA 4000, solution equilibrium
T1 construct: Bought recombinant protein (Sino Biological / Yiqiao Shenzhou 14890-HNAH) in most assays; also called recombinant human LIF protein; rhLIF
Description: The affinity of the purified monoclonal antibodies to the recombinant human LIF protein was determined by KinExA 4000. 200 mg PMMA hard beads were added with 30 μg of the 38E10E1C11 antibody and additional adding coating solution to 1 mL. The buffer composition is 1 xPBS, pH 7.4, 0.02% NaN3. And make sure that the beads were completely suspended in the solution, and rotated for 2 h at room temperature. The beads were naturally settled or quickly centrifuged at low speed. The supernatant was removed and the beads were blocked with PBS containing 1% BSA. 15 mL of 300 pM antigen solution and 15 mL of 240 pM Ab2 (38E10E1C11) solution were prepared. 0.6 mL of 300 pM antigen and 0.6 mL of 240 pM antibody Ab2 (38E10E1C11) were put into different sample tubes separately. The samples in the two tubes were well mixed and put together into one tube, the concentration of the antigen was 150 pM and the concentration of antibody Ab2 (38E10E1C11) was 120 pM at this time, and the solution was placed in the corresponding position in the tube holder. […] Each group was added with 1 μg/L1 Streptavidin Protein, DyLight 650 Solution, and was detected on machine set to incubate for 24 hours. In the KinExatm Pro software, the equilibrium dissociation constant (Kd) for n-curve analysis was calculated by the unknown ligand model, and the results are shown in FIG. 4.

human LIF protein [2] = molecular target: T1, human LIF protein; assay: competition ELISA: human LIF coated at 1 µg/mL, GP130-Fc 20 µg/mL added together with the antibody, A450
Description: The recombinant human LIF protein was coated on the enzyme label plates at a concentration of 1 μg/mL, GP130 protein (expressed fusedly with human FC) at a concentration of 20 μg/mL was added (50 μL/well), and the anti-human LIF antibodies P36-033 and 38E10E1C11 at different concentrations simultaneously were added separately (50 μL/well), and incubated for 2 h at room temperature. At the same time, the control wells added with antibodies and without GP130 protein were set. Incubated for 2 h at room temperature. After washed four times with PBST, incubated with HRP-labeled goat anti-mouse FC secondary antibody for 1 h at room temperature. Then the plates were washed four times with PBST and added with TMB coloured solution in for 10 minutes. The absorption value at 450 nm is quantitated using an enzyme-labelling measuring instrument, and the data was analyzed and plotted using Origin pro 9 software.

human LIF protein [3] = molecular target: T1, human LIF protein; assay: competition ELISA: human LIF coated at 1 µg/mL, LIFR-Fc 0.6125 µg/mL added together with the antibody, A450
Description: (§1) The recombinant human LIF protein was coated on the enzyme label plate at a concentration of 1 μg/mL, LIFR protein (expressed fusedly with human FC) at a concentration of 0.6125 μg/mL was added (50 μL/well), and the anti-human LIF antibodies 38E10E1C11, P36-033 and 38E10E1C11R which is recombinantly expressed by CHO cells (SEQ ID NOs: 41 and 43) at different concentrations simultaneously were added separately (50 μL/well) and incubated for 2 h at room temperature. After washed four times with PBST, incubated with HRP-labeled goat anti-mouse FC secondary antibody for 1 h at room temperature. Then the plates were washed four times with PBST and added with TMB coloured solution in for 10 minutes. The absorption value at 450 nm is quantitated using an enzyme-labelling measuring instrument, and the data was analyzed and plotted using Origin pro 9 software.

[4] = molecular target: recombinant mouse LIF protein (mouse, UniProt P09056 24-203); assay: ELISA, mouse LIF coated at 1 µg/mL, A450
Description: The recombinant mouse LIF protein (purchased from ACRO Biosystems) was diluted to 1 μg/mL, and was coated on the enzyme label plate, 100 μL of protein was added into every well, and incubated overnight in 4° C. The enzyme label plates were taken out next day, and the liquid was discarded, and were washed with PBST three times and blocked with 2% BSA in PBS for 1 h at room temperature, then washed with PBST three times, and added anti-human LIF antibodies 38E10E1C11, 5D8 and P36-033 at different concentrations and incubated for 1 h at room temperature. The liquid was discarded, and the plates were washed with PBST four times. The plates were added with HRP-labeled goat anti-mouse Fab antibody or goat anti-human FC antibody and incubated for 1 h at room temperature. Then the liquid was discarded, and the plates were washed four times with PBST and incubated with TMB colored solution in 10 minutes at room temperature. Stop color development by adding 2 mol/L H₂SO₄, and the absorption value at 450 nm is quantitated using an automated plate photometer, and the results were shown in FIG. 2.

[5] = molecular target: T2, Mut3 heterozygous LIF protein (human LIF with residues 182-202 of …, UniProt P15018 23-201, limits assumed); assay: western blot of 293T culture supernatants, primary antibody 38E10E1C11, HRP goat anti-mouse Fab
T2 construct: Secreted into the supernatant of transfected 293T cells; also called Mut3 protein

[6] = molecular target: T3, Mut4 heterozygous LIF protein (human LIF with residues 166-202 of …, UniProt P15018 23-201, limits assumed); assay: as above
T3 construct: Secreted into the supernatant of transfected 293T cells; also called Mut4 protein

human LIF protein [7] = molecular target: T1, human LIF protein; assay: competition ELISA: human LIF coated at 1 µg/mL, LIFR-Fc 0.6125 µg/mL added together with the antibody, A450; remark: listed apart in the source
Description: as §1

human LIF protein [8] = molecular target: T1, human LIF protein; assay: competition ELISA, LIF coated, competitor LIFR-Fc 0.6125 ug/mL detected with anti-human Fc

Kd (human LIF protein [1]): 4.52 pM | IC50 (read off the curve) (human LIF protein [2]): ~0.6 µg/mL | IC50 (read off the curve) (human LIF protein [3]): ~0.1 µg/mL | binding result [4]: no binding (tested: 100 µg/mL (log 2)) | binding result [5]: binds | binding result [6]: no binding | IC50 (read off the curve) (human LIF protein [7]): ~0.3 µg/mL | IC50 (human LIF protein [8]): 0.074 µg/mL
B1: 38E10E1C11 antibody (antibody, mouse IgG1, kappa)
heavy: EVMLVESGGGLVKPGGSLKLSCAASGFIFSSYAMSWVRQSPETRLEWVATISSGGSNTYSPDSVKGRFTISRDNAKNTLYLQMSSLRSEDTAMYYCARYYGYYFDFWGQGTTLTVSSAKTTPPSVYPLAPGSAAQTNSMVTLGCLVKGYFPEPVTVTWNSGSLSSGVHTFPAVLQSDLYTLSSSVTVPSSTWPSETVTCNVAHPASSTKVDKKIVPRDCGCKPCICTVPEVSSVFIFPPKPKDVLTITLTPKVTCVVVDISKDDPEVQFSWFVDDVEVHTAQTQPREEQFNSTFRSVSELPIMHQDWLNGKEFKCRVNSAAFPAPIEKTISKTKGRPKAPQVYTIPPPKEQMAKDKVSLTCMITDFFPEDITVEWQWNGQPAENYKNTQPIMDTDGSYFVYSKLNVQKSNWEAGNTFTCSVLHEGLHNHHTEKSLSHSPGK
light: DIHMTQSPASLSASVGETVTITCRASENIYSYLAWYQQKQGKSPQLLVYNAKTLAEGVPSRFSGSGSGTQFSLKINSLQPEDFGSYYCQHHYVTPLTFGAGTKLELKRADAAPTVSIFPPSSEQLTSGGASVVCFLNNFYPKDINVKWKIDGSERQNGVLNSWTDQDSKDSTYSMSSTLTLTKDEYERHNSYTCEATHKTSTSPIVKSFNRNEC
notes: Mouse IgG1, kappa light chain; also called 38E10E1C11 mAb; mAb38E10E1C11
